The labels stand for the following.
T1: monkey C5-mmh (monkey, UniProt P01031 19-1676 (human entry), limits assumed)
T1 construct: Expressed with a C-terminal myc-myc-hexahistidine tag
T1 chain: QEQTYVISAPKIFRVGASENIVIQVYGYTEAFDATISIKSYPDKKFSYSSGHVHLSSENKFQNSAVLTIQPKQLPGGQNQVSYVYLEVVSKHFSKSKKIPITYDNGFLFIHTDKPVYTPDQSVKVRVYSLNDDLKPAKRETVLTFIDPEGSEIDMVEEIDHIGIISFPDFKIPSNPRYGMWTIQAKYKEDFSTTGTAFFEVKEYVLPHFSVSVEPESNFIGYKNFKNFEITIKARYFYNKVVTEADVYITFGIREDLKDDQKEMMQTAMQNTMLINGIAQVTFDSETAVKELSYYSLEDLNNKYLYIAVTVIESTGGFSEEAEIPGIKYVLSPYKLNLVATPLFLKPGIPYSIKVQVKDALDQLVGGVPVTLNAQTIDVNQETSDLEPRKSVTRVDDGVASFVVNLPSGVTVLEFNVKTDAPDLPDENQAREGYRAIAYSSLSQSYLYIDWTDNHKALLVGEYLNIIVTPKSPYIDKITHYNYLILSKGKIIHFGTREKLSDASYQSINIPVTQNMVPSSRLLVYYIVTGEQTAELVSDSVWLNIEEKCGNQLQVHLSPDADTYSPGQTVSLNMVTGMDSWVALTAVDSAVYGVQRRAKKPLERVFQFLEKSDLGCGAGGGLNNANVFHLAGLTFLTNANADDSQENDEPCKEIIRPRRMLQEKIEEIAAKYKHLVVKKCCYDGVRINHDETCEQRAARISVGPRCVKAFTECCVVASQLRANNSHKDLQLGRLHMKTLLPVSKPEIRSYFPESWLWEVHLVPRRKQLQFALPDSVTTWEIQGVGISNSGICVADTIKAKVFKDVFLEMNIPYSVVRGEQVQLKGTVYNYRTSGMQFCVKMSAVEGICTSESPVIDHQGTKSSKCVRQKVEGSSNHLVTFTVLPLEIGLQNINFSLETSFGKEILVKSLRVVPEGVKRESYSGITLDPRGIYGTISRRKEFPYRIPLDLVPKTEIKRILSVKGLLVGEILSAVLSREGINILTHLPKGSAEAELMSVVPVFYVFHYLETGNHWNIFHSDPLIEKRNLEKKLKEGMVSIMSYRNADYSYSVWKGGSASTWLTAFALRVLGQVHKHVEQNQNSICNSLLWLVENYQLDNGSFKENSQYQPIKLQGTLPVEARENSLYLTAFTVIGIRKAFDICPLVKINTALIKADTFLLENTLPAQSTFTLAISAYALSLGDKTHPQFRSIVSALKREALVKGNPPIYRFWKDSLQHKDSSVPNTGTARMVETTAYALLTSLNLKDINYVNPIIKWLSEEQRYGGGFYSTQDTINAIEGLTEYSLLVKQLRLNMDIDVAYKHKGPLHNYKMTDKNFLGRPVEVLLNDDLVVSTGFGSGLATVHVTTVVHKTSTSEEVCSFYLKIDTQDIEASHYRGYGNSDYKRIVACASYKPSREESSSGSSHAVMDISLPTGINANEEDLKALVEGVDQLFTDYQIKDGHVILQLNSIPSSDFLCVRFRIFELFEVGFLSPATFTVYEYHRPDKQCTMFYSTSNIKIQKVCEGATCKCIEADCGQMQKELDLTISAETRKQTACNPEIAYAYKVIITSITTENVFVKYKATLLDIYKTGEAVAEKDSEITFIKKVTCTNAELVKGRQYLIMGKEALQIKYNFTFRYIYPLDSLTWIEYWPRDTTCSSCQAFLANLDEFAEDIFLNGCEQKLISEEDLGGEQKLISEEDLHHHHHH

B1: H4H12170P (antibody, human IgG4, V domains shown)
VH: QVQLVESGGGVVQPGRSLRLSCAASGFTFSGYGMHWVRQAPGKGLEWVALIWLDGSNDYYADSVKGRFTISRDNSKNTLYLQMNRLRAEDTAVYYCARDGPVAAIPDYWGQGTLVTVSS
VL: DIQMTQSPSTLSASVGDRVTITCRASQSISRWLAWYQLKPGKAPKLLIYKASSLESGVPSRFSGSGSGTDFTLTISSLQPDDFATYYCQQYNTYSYTFGQGTKLEIK
B2: H4H12169P (antibody, human IgG4, V domains shown)
VH: EVQLVESGGGLAQPGGSLRLSCAASGFTFRSYAMSWVRQAPGKGPEWVSGIGGNGVTTYYADSVKGRFTISRDNSKNTLFLQMNSLRAEDTAVYYCVQGGLGGYFTGYWGQGTLVTVSS
VL: DIQMTQSPSSLSASVGDRVTITCRASQSISTYLNWYQQNPGKAPKLLIFDASSLQSGVPSRFSGSGSGTDFTLTIRGLQPEDFATYYCQQSYSAPLTFGGGTKVEIK
B3: H4H11686N (antibody, human IgG4, V domains shown)
VH: QVQLVESGGGLVKPGGSLRLSCAASGFTFSDYYMSWIRQAPGKGLEWVSYISSSGNTIKYADSMKGRFTISRDNAKKSLFVEMNSLRAEDTAVYYCARYKSSSDYFDHWGQGTLVTVSS
VL: EIVLTQSPATLSLSPGERATLSCRASQSVRSYLAWYQQKPGQAPRLLIYDASNRATAIPARFSGSGSGTDFTLTISSLEPEDLAVYYCQQSGNWPLTFGGGTKVEIK
notes: also called H2M11686N
B4: H4H12183P2 (antibody, human IgG4, V domains shown)
VH: QVQLQESGPALVKPSQTLSLTCTVSGGSIIRGSTYWSWVRQFPGKGLEWIGYSYYSGTAYYNPSLESRATISVDTSKNQFSLNLKSVTAADTAVYYCTREIGVAGLFDIWGQGTLVTVSS
VL: not shown
B5: H4H12177P2 (antibody, human IgG4, V domains shown)
VH: EVQLVESGGGVVQRGESLRLSCSASDFIFKDYAMYWVRQIPGKGLEWISLISGDGDTTWYGDSVKGRFTISRDNNENSLFLQMNDLRTEDTAMYYCARDMGWNFFQLQYWGQGTLVTVSS
VL: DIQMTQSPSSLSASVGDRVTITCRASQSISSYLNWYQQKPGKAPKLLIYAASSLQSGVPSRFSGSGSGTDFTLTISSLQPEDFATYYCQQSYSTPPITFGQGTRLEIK
B6: H4H12168P (antibody, human IgG4, V domains shown)
VH: QVQLVESGGGVVQPGGSLRLSCAASGFTFGGHAMHWVRQAPGKGLEWLAVISSDGSNKQYADSVKGRFTISRDNPKNTLYLQMNSLRVGDTAIYYCAKEVAPRYYYYGLDVWGQGTTVTVSS
VL: DIQMTQSPSSLSASVGDRVTITCRASQDISNFLAWYQQKPGKVPKLLIYTASTLQSGVPSRFSGSGSGTDFTLTVSSLQPEDVATYYCQKYAGALTFGPGTKVDIK

A word on the Kd: it is the constant that tells how readily two partners part at equilibrium. The term koff denotes a measure of how fast the partners let go of each other. The kon is the second-order rate constant of association. The t½ is the time needed for the level to fall by half in the phase considered.

The target of the first assay is T2, Human C5 (human, UniProt P01031 19-1676).
T2 construct: The natural protein has a beta and an alpha chain; also called complement factor 5; complement component 5
The assay is described as follows: SPR, mAb captured by anti-hFc, 25C. The protocol:
(§1) Equilibrium dissociation constants (KD values) for C5 binding to purified anti-C5 antibodies were determined using a real-time surface plasmon resonance biosensor assay on a Biacore T200 instrument. The Biacore sensor surface was derivatized by amine coupling with a monoclonal mouse anti-human Fc antibody (GE Healthcare, # BR-1008-39) to capture anti-C5 antibodies expressed with human Fc constant regions. Biacore binding studies were conducted in HBST running buffer (0.01M HEPES pH 7.4, 0.15M NaCl, 3 mM EDTA, 0.05% v/v Surfactant P20).
(§2) Human C5 was obtained from a commercial source (EMD). Other C5 reagents were expressed with a C-terminal myc-myc-hexahistidine tag (subsequently referred to as C5-mmh). […] Association of all the C5 reagents to each of the captured monoclonal antibodies was monitored for 3 minutes and their dissociation in HBST running buffer was monitored for 8 minutes. All the binding kinetics experiments were performed at either 25° C. or 37° C. Kinetic association (kₐ) and dissociation (kd) rate constants were determined by fitting the real-time sensorgrams to a 1:1 binding model using Scrubber 2.0c curve fitting software. Binding dissociation equilibrium constants (KD) and dissociative half-lives (t %) were calculated from the kinetic rate constants as: KD (M)=kd/kₐ and t_{1/2} (min)=In2/(60×kd)
For orientation: In SPR one partner is held on a chip, and binding of the other changes the refractive index at the surface.
Regarding B1, the “100 nM Human C5 Bound (RU)” value turned out to be 119 RU, the Kd was determined as 0.129 nM, the off-rate (koff) is 6.79e-05 s⁻¹ and the kon is 525000 M⁻¹ s⁻¹. The same molecule gave a t½ of 170 min.

Consider B2, for which the “100 nM Human C5 Bound (RU)” value is 18 RU, the dissociation constant Kd was 1.96 nM, the off-rate constant (koff) came to 0.00044 s⁻¹ and the kon was 224000 M⁻¹ s⁻¹. For the same molecule, the t½ came out at 26 min.

As for B3, the “100 nM Human C5 Bound (RU)” value was 341 RU, the Kd was 0.15 nM, the koff was 3.31e-05 s⁻¹ and the kon was 220000 M⁻¹ s⁻¹. This molecule also had a t½ of 349 min.

On to B4, for which the “100 nM Human C5 Bound (RU)” value came out at 50 RU, binding was characterised by a dissociation constant (Kd) of 0.163 nM, the off-rate (koff) worked out at 2.7e-05 s⁻¹ and the kon came out at 166000 M⁻¹ s⁻¹. The t½ worked out at 427 min.

For the molecule B5, the “100 nM Human C5 Bound (RU)” value is 60 RU, the Kd amounted to 0.959 nM, the koff stood at 6.29e-05 s⁻¹ and the kon is 65600 M⁻¹ s⁻¹. The same molecule showed a t½ of 184 min.

On to B6, for which the “100 nM Human C5 Bound (RU)” value turned out to be 113 RU, the Kd worked out at 0.112 nM, the koff amounted to 4.75e-05 s⁻¹ and the association rate constant (kon) amounted to 423000 M⁻¹ s⁻¹. The t½ worked out at 243 min.

The next assay concerns the target T1, monkey C5-mmh. Description: SPR, mAb captured by anti-hFc, 25C. Here is the method: as §1, §2
On to B1, for which the “100 nM monkey C5-mmh Bound (RU)” value came to 92 RU, the Kd was found to be 0.199 nM, the off-rate (koff) was 5.21e-05 s⁻¹ and the kon turned out to be 262000 M⁻¹ s⁻¹. Further, the “t1/2” value was 222 min.

For the molecule B2, the “100 nM monkey C5-mmh Bound (RU)” value came out at 22 RU, binding was put at a Kd of 27.8 nM, the off-rate (koff) is 0.00455 s⁻¹ and the kon is 164000 M⁻¹ s⁻¹. The “t1/2” value was found to be 3 min.

Regarding B3, the “100 nM monkey C5-mmh Bound (RU)” value stood at 247 RU, binding was put at a Kd of 3.11 nM, the koff was 0.000489 s⁻¹ and the kon is 157000 M⁻¹ s⁻¹. The “t1/2” value is 24 min.

As for B4, the “100 nM monkey C5-mmh Bound (RU)” value came out at 23 RU, the Kd stood at 10.1 nM, the dissociation rate constant (koff) was determined as 0.000494 s⁻¹ and the kon worked out at 48800 M⁻¹ s⁻¹. Also, the “t1/2” value was 23 min.

B5: the “100 nM monkey C5-mmh Bound (RU)” value is 32 RU, binding was characterised by a dissociation constant (Kd) of 21.5 nM, the koff amounted to 0.000992 s⁻¹ and the kon worked out at 46200 M⁻¹ s⁻¹. Further, the “t1/2” value was determined as 12 min.

Take B6: the “100 nM monkey C5-mmh Bound (RU)” value was determined as 86 RU, the Kd was found to be 0.66 nM, the dissociation rate constant (koff) worked out at 0.000114 s⁻¹ and the kon is 173000 M⁻¹ s⁻¹. The “t1/2” value was determined as 101 min.

For the next assay, the target named is T2, Human C5. The assay is described as follows: SPR, mAb captured by anti-hFc, 37C. Here is the method: as §1, §2
Take B1: the “100 nM Human C5 Bound (RU)” value came to 55 RU, the Kd came to 1.4 nM, the off-rate (koff) stood at 0.000415 s⁻¹ and the kon amounted to 297000 M⁻¹ s⁻¹. Further, the t½ is 28 min.

Turning to B2, the “100 nM Human C5 Bound (RU)” value turned out to be 65 RU; the affinity, expressed as Kd, was 3.06 nM; the dissociation rate constant (koff) came to 0.000352 s⁻¹; the association rate constant (kon) is 115000 M⁻¹ s⁻¹. The t½ amounted to 33 min.

B3: the “100 nM Human C5 Bound (RU)” value stood at 406 RU, the dissociation constant (Kd) came to 0.469 nM, the koff turned out to be 0.000156 s⁻¹ and the kon is 333000 M⁻¹ s⁻¹. Moreover, the t½ was found to be 74 min.

B4: the “100 nM Human C5 Bound (RU)” value is 30 RU, binding was characterised by a dissociation constant (Kd) of 5.81 nM, the dissociation rate constant (koff) is 0.00025 s⁻¹ and the on-rate (kon) worked out at 43000 M⁻¹ s⁻¹. The same molecule showed a t½ of 46 min.

In the case of B5, the “100 nM Human C5 Bound (RU)” value is 37 RU, the dissociation constant (Kd) came to 13.1 nM, the dissociation rate constant (koff) stood at 0.000578 s⁻¹ and the kon came out at 44200 M⁻¹ s⁻¹. The molecule also yielded a t½ of 20 min.

Turning to B6, the “100 nM Human C5 Bound (RU)” value is 12 RU, the Kd was found to be 18.5 nM, the koff is 0.000464 s⁻¹ and the kon stood at 25000 M⁻¹ s⁻¹. This molecule showed a t½ of 25 min.

Source of the values: patent US20170355757A1 (Regeneron, published 2017).
